Results: patent US20200199241A1 (Chugai, published 2020)

These binders were tested against T1, soluble human FcRn complexed with β2-microglobulin (human, UniProt P61769 21-119, limits assumed) (assay: Biacore SPR, pH 7.0;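 also: test antibodies captured on a Protein L chip with human FcRn flowed over as analyte, KD obtained as the ratio of dissociation to association rate constants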).
T1 construct: also called hFcRn

Binder | Kd
IgG1-F1034 (antibody, EU numbering; copies: 2 + 2) heavy: QVQLQESGPGLVKPSETLSLTCAVSGHSISHDHAWSWVRQPPGEGLEWIGFISYSGITNYNPSLQGRVTISRDNSKNTLYLQMNSLRAEDTAVYYCARSLARTTAMDYWGEGTLVTVSSASTKGPSVFPLAPSSKSTSGGTAALGCLVKDYFPEPVTVSWNSGALTSGVHTFPAVLQSSGLYSLSSVVTVPSSSLGTQTYICNVNHKPSNTKVDKKVEPKSCDKTHTCPPCPAPELKGGPKVFLFPPKPKDTLYISRTPEVTCVVVDVSHEDPEVKFNWYVDGVEVHNAKTKPREEQYNSTYRVVSVLTPLHQDWLNGKEYKCKVSNKALPAPIEKTISKAKGQPREPQVYTLPPSRDELTKNQVSLTCLVKGFYPSDIAVEWESNGQPENNYKTTPPVLDSDGSFFLYSKLTVDKSRWQQGNVFSCSVMHEALHYHVTQKSLSLSP light: not shown | 15 nM
IgG1-F1037 (antibody, EU numbering; copies: 2 + 2) heavy: QVQLQESGPGLVKPSETLSLTCAVSGHSISHDHAWSWVRQPPGEGLEWIGFISYSGITNYNPSLQGRVTISRDNSKNTLYLQMNSLRAEDTAVYYCARSLARTTAMDYWGEGTLVTVSSASTKGPSVFPLAPSSKSTSGGTAALGCLVKDYFPEPVTVSWNSGALTSGVHTFPAVLQSSGLYSLSSVVTVPSSSLGTQTYICNVNHKPSNTKVDKKVEPKSCDKTHTCPPCPAPELKGGPKVFLFPPKPKDTLYISRTPEVTCVVVDVSHEDPEVKFNWYVDGVEVHNAKTKPREEQYNSTYRVVSVLQVLHADWLNGKEYKCKVSNKALPAPIEKTISKAKGQPREPQVYTLPPSRDELTKNQVSLTCLVKGFYPSDIAVEWESNGQPENNYKTTPPVLDSDGSFFLYSKLTVDKSRWQQGNVFSCSVIHEALHYHVTQKSLSLSP light: not shown | 61 nM
IgG1-F1038 (antibody, EU numbering; copies: 2 + 2) heavy: QVQLQESGPGLVKPSETLSLTCAVSGHSISHDHAWSWVRQPPGEGLEWIGFISYSGITNYNPSLQGRVTISRDNSKNTLYLQMNSLRAEDTAVYYCARSLARTTAMDYWGEGTLVTVSSASTKGPSVFPLAPSSKSTSGGTAALGCLVKDYFPEPVTVSWNSGALTSGVHTFPAVLQSSGLYSLSSVVTVPSSSLGTQTYICNVNHKPSNTKVDKKVEPKSCDKTHTCPPCPAPELKGGDKVFLFPPKPKDTLYISRTPEVTCVVVDVSHEDPEVKFNWYVDGVEVHNAKTKPREEQYNSTYRVVSVLTVLHQDWLNGKEYKCKVSNKALPAPIEKTISKAKGQPREPQVYTLPPSRDELTKNQVSLTCLVKGFYPSDIAVEWESNGQPENNYKTTPPVLDSDGSFFLYSKLTVDKSRWQQGNVFSCSVMHEALHYHYTQKSLSLSP light: not shown | 280 nM
IgG1-F1043 (antibody, EU numbering; copies: 2 + 2) heavy: QVQLQESGPGLVKPSETLSLTCAVSGHSISHDHAWSWVRQPPGEGLEWIGFISYSGITNYNPSLQGRVTISRDNSKNTLYLQMNSLRAEDTAVYYCARSLARTTAMDYWGEGTLVTVSSASTKGPSVFPLAPSSKSTSGGTAALGCLVKDYFPEPVTVSWNSGALTSGVHTFPAVLQSSGLYSLSSVVTVPSSSLGTQTYICNVNHKPSNTKVDKKVEPKSCDKTHTCPPCPAPELKGGPKVFLFPPKPKDVLYISRTPEVTCVVVDVSHEDPEVKFNWYVDGVEVHNAKTKPREEQYNSTYRVVSVLTPLHQDWLNGKEYKCKVSNKALPAPIEKTISKAKGQPREPQVYTLPPSRDELTKNQVSLTCLVKGFYPSDIAVEWESNGQPENNYKTTPPVLDSDGSFFLYSKLTVDKSRWQQGNVFSCSVMHEALHYHYTQKSLSLSP light: not shown | 52 nM
IgG1-F1042 (antibody, EU numbering; copies: 2 + 2) heavy: QVQLQESGPGLVKPSETLSLTCAVSGHSISHDHAWSWVRQPPGEGLEWIGFISYSGITNYNPSLQGRVTISRDNSKNTLYLQMNSLRAEDTAVYYCARSLARTTAMDYWGEGTLVTVSSASTKGPSVFPLAPSSKSTSGGTAALGCLVKDYFPEPVTVSWNSGALTSGVHTFPAVLQSSGLYSLSSVVTVPSSSLGTQTYICNVNHKPSNTKVDKKVEPKSCDKTHTCPPCPAPELKGGPKVFLFPPKPKDTLYISRTPEVTCVVVDVSHEDPEVKFNWYVDGVEVHNAKTKPREEQYNSTYRVVSVLAVLHHDWLNGKEYKCKVSNKALPAPIEKTISKAKGQPREPQVYTLPPSRDELTKNQVSLTCLVKGFYPSDIAVEWESNGQPENNYKTTPPVLDSDGSFFLYSKLTVDKSRWQQGNVFSCSVMHEALHYHYTQKSLSLSP light: not shown | 200 nM
IgG1-F1040 (antibody, EU numbering; copies: 2 + 2) heavy: QVQLQESGPGLVKPSETLSLTCAVSGHSISHDHAWSWVRQPPGEGLEWIGFISYSGITNYNPSLQGRVTISRDNSKNTLYLQMNSLRAEDTAVYYCARSLARTTAMDYWGEGTLVTVSSASTKGPSVFPLAPSSKSTSGGTAALGCLVKDYFPEPVTVSWNSGALTSGVHTFPAVLQSSGLYSLSSVVTVPSSSLGTQTYICNVNHKPSNTKVDKKVEPKSCDKTHTCPPCPAPELKGGPKVFLFPPKPKDVLYISRTPEVTCVVVDVSHEDPEVKFNWYVDGVEVHNAKTKPREEQYNSTYRVVSVLTVLHQDWLNGKEYKCKVSNKALPAPIEKTISKAKGQPREPQVYTLPPSRDELTKNQVSLTCLVKGFYPSDIAVEWESNGQPENNYKTTPPVLDSDGSFFLYSKLTVDKSRWQQGNVFSCSVMHEALHYHVTQKSLSLSP light: not shown | 200 nM

Now those with a lower Kd, led by results:

Kd | Binder
14 nM | IgG1-F1036 (antibody, EU numbering; copies: 2 + 2) heavy: QVQLQESGPGLVKPSETLSLTCAVSGHSISHDHAWSWVRQPPGEGLEWIGFISYSGITNYNPSLQGRVTISRDNSKNTLYLQMNSLRAEDTAVYYCARSLARTTAMDYWGEGTLVTVSSASTKGPSVFPLAPSSKSTSGGTAALGCLVKDYFPEPVTVSWNSGALTSGVHTFPAVLQSSGLYSLSSVVTVPSSSLGTQTYICNVNHKPSNTKVDKKVEPKSCDKTHTCPPCPAPELKGGPKVFLFPPKPKDTLYISRTPEVTCVVVDVSHEDPEVKFNWYVDGVEVHEAKTKPREEQYNSTYRVVSVLQVLHADWLNGKEYKCKVSNKALPAPIEKTISKAKGQPREPQVYTLPPSRDELTKNQVSLTCLVKGFYPSDIAVEWESNGQPENNYKTTPPVLDSDGSFFLYSKLTVDKSRWQQGNVFSCSVMHEALHYHVTQKSLSLSP light: not shown
14 nM | IgG1-F1041 (antibody, EU numbering; copies: 2 + 2) heavy: QVQLQESGPGLVKPSETLSLTCAVSGHSISHDHAWSWVRQPPGEGLEWIGFISYSGITNYNPSLQGRVTISRDNSKNTLYLQMNSLRAEDTAVYYCARSLARTTAMDYWGEGTLVTVSSASTKGPSVFPLAPSSKSTSGGTAALGCLVKDYFPEPVTVSWNSGALTSGVHTFPAVLQSSGLYSLSSVVTVPSSSLGTQTYICNVNHKPSNTKVDKKVEPKSCDKTHTCPPCPAPELKGGPKVFLFPPKPKDVLYISRTPEVTCVVVDVSHEDPEVKFNWYVDGVEVHNAKTKPREEQYNSTYRVVSVLQPLHADWLNGKEYKCKVSNKALPAPIEKTISKAKGQPREPQVYTLPPSRDELTKNQVSLTCLVKGFYPSDIAVEWESNGQPENNYKTTPPVLDSDGSFFLYSKLTVDKSRWQQGNVFSCSVMHEALHYHVTQKSLSLSP light: not shown
10 nM | IgG1-F1035 (antibody, EU numbering; copies: 2 + 2) heavy: QVQLQESGPGLVKPSETLSLTCAVSGHSISHDHAWSWVRQPPGEGLEWIGFISYSGITNYNPSLQGRVTISRDNSKNTLYLQMNSLRAEDTAVYYCARSLARTTAMDYWGEGTLVTVSSASTKGPSVFPLAPSSKSTSGGTAALGCLVKDYFPEPVTVSWNSGALTSGVHTFPAVLQSSGLYSLSSVVTVPSSSLGTQTYICNVNHKPSNTKVDKKVEPKSCDKTHTCPPCPAPELKGGPKVFLFPPKPKDTLYISRTPEVTCVVVDVSHEDPEVKFNWYVDGVEVHNAKTKPREEQYNSTYRVVSVLQPLHADWLNGKEYKCKVSNKALPAPIEKTISKAKGQPREPQVYTLPPSRDELTKNQVSLTCLVKGFYPSDIAVEWESNGQPENNYKTTPPVLDSDGSFFLYSKLTVDKSRWQQGNVFSCSVMHEALHYHVTQKSLSLSP light: not shown
